Data as given in the RNAGym collection of RNA variant scans (doi:10.1073/pnas.2313332121).

B1: TPR t1 (parent)
chain: GACCAAUCUGCCCUCAGAGCUCGAGAACAUCUUCGGAUGCAGAGGAGGCAGGCUUCGGUGGCGCGAUAGCGCCAACGUCCUCAACCUCCAAUGCAUCCCACCACAUGAUGAUGCCUGAAGAGCCUUGGUUUUUUG

Variants of: B1
Assay: polymerase ribozyme fitness, log enrichment relative to wild type (log ratio); higher = more active; in vitro selection for triplet polymerase activity
In short: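 In triplicate, a single round of in vitro selection was run on each mutant library, PCR-built and transcribed, covering one subunit of a heterodimeric triplet polymerase ribozyme. Frozen incubation at −7 °C followed annealing with a biotinylated primer, partner subunit and triplets, and extended constructs were then gel-excised, streptavidin-captured and taken through RT-PCR. Fitness is the logarithm of genotype enrichment over wild-type enrichment, from inverse-variance-weighted replicate averages of Illumina-sequenced inputs and outputs. […] only genotypes with ≥10 input reads and ≥1 read per output were kept.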

Variant | polymerase ribozyme fitness (log ratio)
GACCAAUCUGCCCUCAGAGCUCGAGAACAUCUUCGGAUGCUGAGGAGGCAGGAUUCGAUGGCGCGAUAGCGCCAACGUCCUCAACCUCCAAUGCAUCCCACCACAUGAUGAUGCCUGAAGAGCCUUGGUUUUUUG [A41U C53A G58A] | -1.32
GACCAAUCUGCCCUCAGAGCUCGAGAACAUCUUCGGAUGCUGAGGAGGCAGGCUUCGGUGGCGCGAUAGCGCCAACGUCCUCAACCUCCAAUGCAUCCCACUACAUGAUGAUGCCUGAAGAGCCUUGGUUUUUUG [A41U C102U] | -3.6
GACCAAUCUGCCCUCAGAGCUCGAGAACAUCUUCGGAUGCUGAGGAGGCCGGCUUCGGUGGCGCGAUAGCGCCAACGUCCUCAACCUCCAAUGCAUCCCACCACAUGAUGAUGCCUGAAGAGCCUUGGUUUUUUG [A41U A50C] | -1.53
GACCAAUCUGCCCUCAGAGCUCGAGAACAUCUUCGGAUGCUGAGGAGGCAGGAUUCGGUGGCGCGAUAGCGCCAACGUCCUCAACCUCCAAUGCAUCCCACCACAUGAUGAUGGCUGAAGAGCCUUGGUUUUUUG [A41U C53A C114G] | -1.85
GACCAAUCUGCCCUCAGAGCUCGAGAACAUCUUCGGAUGCGGAGGAGGCAGGCUUCGGUGGCUCGAUAGCGCCAACGUCCUCAACCUCCAAUGCAUCCCACCACAUGAUGAUGCCUCAAGAGCCUUGGUUUUUUG [A41G G63U G117C] | -6.01
GACCAAUCUGCCCUCAGAGCUCGAGAACAUCUUCGGAUGCGGAGGAGGCAGGCUGCGGUGGCGCGAUAGCGCCAGCGUCCUCAACCACCAAUGCAUCCCACCACAUGGUGAUGCCUGAAGAGCCUUGGUUUUUUG [A41G U55G A75G U87A A108G] | -4.14
GACCAAUCUGCCCUCAGAGCUCGAGAACAUCUUCGGAUGCUUAGGAGGCAGGCUUCGGUGGCGCGAUAGCGCCAACGUCCUCAACCUCCAAUCCAUCCCACCACAUGAUGAUGCCUGAAGAGCCUUGGUUUUUUG [A41U G42U G93C] | -3.1
GACCAAUCUGCCCUCAGAGCUCGAGAACAUCUUCGGAUGCGGAGGAGGCAGGCUUCGGUGUCGCGAUAGCGCCAACGUCCUCAGCCUCCAAUGCAGUCCACCACAUGAUGAUGCCUGAAGAGCCUUGGUUUUUUG [A41G G61U A84G U96G C97U] | -6.44
GACCAAUCUGCCCUCAGAGCUCGAGAACAUCUUCGGAUGCUGAGGAGGCAGGCUUCGGUGGCGCGAUAGCGCCAACGUCCUCAACCUCCCAUGCAUCCCACCACAUGAUGAUGCCUGAAGAGCCUUGGUUUUUUG [A41U A90C] | -1.41
GACCAAUCUGCCCUCAGAGCUCGAGAACAUCUUCGGAUGCUCAGGAGGCAGGCUUCGGUGGCGCGAUAGCGCCAACGUCCUCAACCUCCAAUGCAUCCCACCACAUGAUGAUGACUGAAGAGCAUUGGUUUUUUG [A41U G42C C114A C124A] | -3.31
GACCAAUCUGCCCUCAGAGCUCGAGAACAUCUUCGGAUGCUGAGGAGGCAGGCUUCGGUGGCGCGAUAGCGCCAACGUCCUCAACCUCCAAUGUAUCCCACCACAUGAUGGUGCCUGAAGAGCCUUGUUUUUUUG [A41U C94U A111G G128U] | -4.31
GACCAAUCUGCCCUCAGAGCUCGAGAACAUCUUCGGAUGCUGAGAAGGCAGGCUUCGGUGGCGCGAUAGCGCCAACGUCCUCAACCUACAAUGCAUCCCACCACAUGAUGAUGCAUGAAGAGCCUUGGUUAUUUG [A41U G45A C88A C115A U131A] | -3.64
GACCAAUCUGCCCUCAGAGCUCGAGAACAUCUUCGGAUGCUGAGGAAGCAGGCUUCGGUGGCGCGAUAGCGCCAACGUCCUCAACCUCCAAUGCAUCCCACCACAUGAUUAUGCCUGAAGAGCCUUGGUUUUUUG [A41U G47A G110U] | -5.48
GACCAAUCUGCCCUCAGAGCUCGAGAACAUCUUCGGAUGCUGCGGAGGCAGGCUUCGGUGGCGCGAUAGCGCCAACGUUUUCAACCUCCAAUGCAUCCCACCACAUGAUGAUGCCUGAAGAGCUUUGGUUUUUUG [A41U A43C C79U C80U C124U] | -4.76
GACCAAUCUGCCCUCAGAGCUCGAGAACAUCUUCGGAUGCUGAGGAGGCAGGCUUCGGUGGCGCGAUAGCGCCAACGUCCUCAACCUCCAAUGCAUCCCACCACAUGAUGGUGCCUGAAGAGCCUUGGUUUUUUG [A41U A111G] | -1.26
GACCAAUCUGCCCUCAGAGCUCGAGAACAUCUUCGGAUGCUGAGGAGGCAGGCUUCGGUGGCGCGAUAGCGCCAACGUCCUCAACCUCCACCGCAUCCCACCACAUGAUGAUGCCUGAAGAGCCUUGGUUUUUUG [A41U A91C U92C] | -2.44
GACCAAUCUGCCCUCAGAGCUCGAGAACAUCUUCGGAUGCUGAGGUGGCAGGCUUCGGUGGCGCGAUAGCGCCAACGUCCUCAACCUCCAAUGCAUCCCACCACAUGAUGAUGCCUGAAGAGCCUUGGUUUUUUG [A41U A46U] | -2.26
GACCAAUCUGCCCUCAGAGCUCGAGAACAUCUUCGGAUGCUGAGGAGGCAGGGUUCGGUGGCCCGAUAGCGUCAACAUCCUCAACCUCCAAUGCAUCCCACCACAUGAUGAUGCCUGAAGAGCCUUGGUUUUUUG [A41U C53G G63C C72U G77A] | -3.7
GACCAAUCUGCCCUCAGAGCUCGAGAACAUCUUCGGAUGCUGAGGAGGCAGGCUUCGGUGGCGCGAUAGCGCCAACGUUCUCAACCUCCAAUGCAUCCCACCACAUGAUGAUGCCUGAAGAGCCUUGGUUUUUUG [A41U C79U] | -0.893
GACCAAUCUGCCCUCAGAGCUCGAGAACAUCUUCGGAUGCUGAGGAGGCGGGCUUCGGUGGCGCGAUAGCGCCAACAUCCUCAACCUCCAAUGCAUCCCACCACAUGAUGAUGCCUGAAGAGCCUUGGUUUUUUG [A41U A50G G77A] | -0.647
GACCAAUCUGCCCUCAGAGCUCGAGAACAUCUUCGGAUGCUGAGGUGGCAGGCUUCGGUGGCUCGAUAGCGCCAACGUCCUCAACCUCCAAUGCAUCCCACCACAUGAUGAUGCAUGAAUAGGCUUGGUUUUUUG [A41U A46U G63U C115A G120U C123G] | -3.28
